Measurements: US20220380782A1
Like-named read-outs stand apart in the source and are kept apart here.

Columns and labels:
[1] = target: mAID-EGFP-NLS (arabidopsis)
[2] = target: mAID-EGFP-NLS (arabidopsis); remark: listed apart in the source
[3] = target: RAD21-mAID-Clover (human; arabidopsis) (UniProt O60216)
[4] = target: mAID-EGFP-NLS (arabidopsis); remark: listed apart in the source

Sequence of OsTIR1(WT) (receptor) (chain): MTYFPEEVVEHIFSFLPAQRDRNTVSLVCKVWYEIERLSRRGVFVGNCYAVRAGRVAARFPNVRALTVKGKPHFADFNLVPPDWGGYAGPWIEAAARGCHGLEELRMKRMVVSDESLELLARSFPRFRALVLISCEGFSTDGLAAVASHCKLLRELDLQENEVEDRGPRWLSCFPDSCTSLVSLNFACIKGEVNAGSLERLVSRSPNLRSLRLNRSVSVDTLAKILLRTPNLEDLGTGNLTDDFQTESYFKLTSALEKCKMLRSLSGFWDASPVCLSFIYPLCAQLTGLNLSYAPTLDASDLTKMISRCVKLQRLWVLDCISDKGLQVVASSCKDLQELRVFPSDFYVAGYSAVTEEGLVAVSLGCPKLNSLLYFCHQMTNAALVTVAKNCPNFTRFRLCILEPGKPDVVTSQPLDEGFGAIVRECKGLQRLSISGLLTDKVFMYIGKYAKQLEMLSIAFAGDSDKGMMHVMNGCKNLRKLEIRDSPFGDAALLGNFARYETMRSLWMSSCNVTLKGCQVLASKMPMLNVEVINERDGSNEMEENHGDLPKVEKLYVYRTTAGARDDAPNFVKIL
Sequence of RAD21-mAID-Clover (human; arabidopsis) (O60216 other isoform, or with tags, fused parts or gaps): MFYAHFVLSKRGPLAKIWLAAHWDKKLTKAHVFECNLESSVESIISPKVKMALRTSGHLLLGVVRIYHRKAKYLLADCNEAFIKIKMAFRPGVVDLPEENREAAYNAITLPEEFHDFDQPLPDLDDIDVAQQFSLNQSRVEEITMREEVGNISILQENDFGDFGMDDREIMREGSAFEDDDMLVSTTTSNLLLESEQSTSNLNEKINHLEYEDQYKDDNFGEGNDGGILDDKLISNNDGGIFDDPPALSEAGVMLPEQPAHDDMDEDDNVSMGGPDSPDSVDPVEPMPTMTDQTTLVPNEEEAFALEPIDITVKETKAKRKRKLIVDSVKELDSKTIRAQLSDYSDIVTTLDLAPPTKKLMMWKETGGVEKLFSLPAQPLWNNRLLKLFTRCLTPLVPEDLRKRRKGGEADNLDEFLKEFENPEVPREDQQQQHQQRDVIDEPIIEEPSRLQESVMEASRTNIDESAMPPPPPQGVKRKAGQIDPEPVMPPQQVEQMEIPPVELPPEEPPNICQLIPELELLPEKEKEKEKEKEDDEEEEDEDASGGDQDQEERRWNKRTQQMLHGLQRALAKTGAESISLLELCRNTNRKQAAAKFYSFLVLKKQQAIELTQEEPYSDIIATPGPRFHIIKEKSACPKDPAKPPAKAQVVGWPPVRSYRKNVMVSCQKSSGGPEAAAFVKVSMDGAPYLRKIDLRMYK
Sequence of OsTIR1(WT) (chain): as the sequence (chain) above

Substance: OsTIR1(WT) (receptor)
- half-life of the reporter after ligand addition (time course) [1]: 147 min
- DC 50 (concentration of IAA (auxin) for 50% degradation of the reporter) [2]: 300 nM

Substance: OsTIR1(F74G) (receptor)
- T1/2 of RAD21-mAC after the addition of a ligand [3]: 11.7 min
- DC 50 (concentration of 5-Ph-IAA for 50% degradation of the reporter) [2]: 0.45 nM
- half-life of the reporter after ligand addition (time course) [4]: 62.3 min

Substance: OsTIR1(WT)
- T1/2 of RAD21-mAC after the addition of a ligand [3]: 26.5 min
